Assay results from publication doi:10.1101/2020.06.12.148478 (bioRxiv, 2020).

T1: SpbR (Caulobacter crescentus, UniProt Q9A5X4 1-377)
T1 sequence (looked up): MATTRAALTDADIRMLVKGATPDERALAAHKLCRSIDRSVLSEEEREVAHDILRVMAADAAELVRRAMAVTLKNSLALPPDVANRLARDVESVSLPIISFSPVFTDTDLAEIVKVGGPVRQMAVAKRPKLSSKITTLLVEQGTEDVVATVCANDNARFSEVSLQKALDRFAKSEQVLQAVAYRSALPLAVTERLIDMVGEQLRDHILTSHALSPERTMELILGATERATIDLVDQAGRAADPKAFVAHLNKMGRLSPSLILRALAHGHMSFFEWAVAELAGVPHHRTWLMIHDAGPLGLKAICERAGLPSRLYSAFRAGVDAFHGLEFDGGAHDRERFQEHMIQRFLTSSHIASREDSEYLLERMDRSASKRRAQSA

B1: RcdA (natural protein, Caulobacter crescentus, UniProt A0A0H3CD07 1-169, looked up)
chain: MTEVNAFADTPWRAGVIQDFARSELFDRTFEEGMQLVEETAAYLDGAGRHDSKVLSRNAALGYATESMRLTTRLMQVASWLLVQRAVREGEMPPEAACAEAYRLAEEAPADGPAVEELPFGLMNLLQRSERLYERVRHLDRRMYVESPNEEAPRPVQNQLDRLTAAFGG
modifications: Fluorescin-5-Maleimide on cysteine in the fluorescence polarisation and MST experiments only; unlabelled elsewhere

Legend:
[1] = target: TacA (Caulobacter crescentus); test: SEC-MALS
SpbR [2] = target: T1, SpbR; test: ITC
[3] = target: PopA (Caulobacter crescentus); test: SEC-MALS
SEC-MALS = target: the molecule itself; test: SEC-MALS
SpbR [4] = target: T1, SpbR; test: SEC-MALS
MST = target: the molecule itself; test: MST

| Molecule | stoichiometry N [1] [subunits] | Kd (SpbR [2]) [µM] | stoichiometry N (RcdA per TacA chain (1 RcdA : 2 TacA)) [1] | stoichiometry N (RcdA per PopA) [3] | stoichiometry N (SEC-MALS) [subunits] | stoichiometry N (SpbR [4]) [RcdA per SpbR] | Kd (MST) [µM] |
| --- | --- | --- | --- | --- | --- | --- | --- |
| TacA (natural protein) | 2 | – | – | – | – | – | – |
| B1 | – | 3.3 | 0.5 | 1 | 2 | 1 | 2.9 |
